In patent publication US9618524B2, “Method, composition, isolation and identification of a plaque particle and related biomarker” (Plaxgen Inc., priority 2012, dated 2017):

B1: Isoform 1B of Desmocollin-1 (protein)
chain: RWAPIPASLMENSLGPFPQHVQQIQSDAAQNYTIFYSISGPGVDKEPFNLFYIEKDTGDIFCTRSIDREKYEQFALYGYATTADGYAPEYPLPLIIKIEDDNDNAPYFEHRVTIFTVPENCRSGTSVGKVTATDLDEPDTLHTRLKYKILQQIPDHPKHFSIHPDTGVITTTTPFLDREKCDTYQLIMEVRDMGGQPFGLFNTGTITISLEDENDNPPSFTETSYVTEVEENRIDVEILRMKVQDQDLPNTPHSKAVYKILQGNENGNFIISTDPNTNEGVLCVVKPLNYEVNRQVILQVGVINEAQFSKAASSQTPTMCTTTVTVKIIDSDEGPECHPPVKVIQSQDGFPAGQELLGYKALDPEISSGEGLRYQKLGDEDNWFEINQHTGDLRTLKVLDRESKFVKNNQYNISVVAVDAVGRSCTGTLVVHLDDYNDHAPQIDKEVTICQNNEDFAVLKPVDPDGPENGPPFQFFLDNSASKNWNIEEKDGKTAILRQRQNLDYNYYSVPIQIKDRHGLVATHMLTVRVCDCSTPSECRMKDKSTRDVRPNVILGRWAILAMVLGSVLLLCILFTCFCVTAKRTVKKCFPEDIAQQNLIVSNTEGPGEEVTEANIRLPMQTSNICDTSMSVGTVGGQGIKTQQSFEMVKGGYTLDSNKGGGHQTLESVKGVGQGDTGRYAYTDWQSFTQPRLGEESIRGHTLIKN
B2: Coagulation factor XIII B chain (protein)
chain: EEKPCGFPHVENGRIAQYYYTFKSFYFPMSIDKKLSFFCLAGYTTESGRQEEQTTCTTEGWSPEPRCFKKCTKPDLSNGYISDVKLLYKIQENMRYGCASGYKTTGGKDEEVVQCLSDGWSSQPTCRKEHETCLAPELYNGNYSTTQKTFKVKDKVQYECATGYYTAGGKKTEEVECLTYGWSLTPKCTKLKCSSLRLIENGYFHPVKQTYEEGDVVQFFCHENYYLSGSDLIQCYNFGWYPESPVCEGRRNRCPPPPLPINSKIQTHSTTYRHGEIVHIECELNFEIHGSAEIRCEDGKWTEPPKCIEGQEKVACEEPPFIENGAANLHSKIYYNGDKVTYACKSGYLLHGSNEITCNRGKWTLPPECVENNENCKHPPVVMNGAVADGILASYATGSSVEYRCNEYYLLRGSKISRCEQGKWSSPPVCLEPCTVNVDYMNRNNIEMKWKYEGKVLHGDLIDFVCKQGYDLSPLTPLSELSVQCNRGEVKYPLCTRKESKGMCTSPPLIKHGVIISSTVDTYENGSSVEYRCFDHHFLEGSREAYCLDGMWTTPPLCLEPCTLSFTEMEKNNLLLKWDFDNRPHILHGEYIEFICRGDTYPAELYITGSILRMQCDRGQLKYPRCIPRQSTLSYQEPLRT
B3: Interleukin enhancer-binding factor 3 (protein)
chain: MRPMRIFVNDDRHVMAKHSSVYPTQEELEAVQNMVSHTERALKAVSDWIDEQEKGSSEQAESDNMDVPPEDDSKEGAGEQKTEHMTRTLRGVMRVGLVAKGLLLKGDLDLELVLLCKEKPTTALLDKVADNLAIQLAAVTEDKYEILQSVDDAAIVIKNTKEPPLSLTIHLTSPVVREEMEKVLAGETLSVNDPPDVLDRQKCLAALASLRHAKWFQARANGLKSCVIVIRVLRDLCTRVPTWGPLRGWPLELLCEKSIGTANRPMGAGEALRRVLECLASGIVMPDGSGIYDPCEKEATDAIGHLDRQQREDITQSAQHALRLAAFGQLHKVLGMDPLPSKMPKKPKNENPVDYTVQIPPSTTYAITPMKRPMEEDGEEKSPSKKKKKIQKKEEKAEPPQAMNALMRLNQLKPGLQYKLVSQTGPVHAPIFTMSVEVDGNSFEASGPSKKTAKLHVAVKVLQDMGLPTGAEGRDSSKGEDSAEETEAKPAVVAPAPVVEAVSTPSAAFPSDATAEQGPILTKHGKNPVMELNEKRRGLKYELISETGGSHDKRFVMEVEVDGQKFQGAGSNKKVAKAYAALAALEKLFPDTPLALDANKKKRAPVPVRGGPKFAAKPHNPGFGMGGPMHNEVPPPPNLRGRGRGGSIRGRGRGRGFGGANHGGYMNAGAGYGSYGYGGNSATAGYSQFYSNGGHSGNASGGGGGGGGGSSGYGSYYQGDNYNSPVPPKHAGKKQPHGGQQKPSYGSGYQSHQGQQQSYNQSPYSNYGPPQGKQKGYNHGQGSYSYSNSYNSPGGGGGSDYNYESKFNYSGSGGRSGGNSYGSGGASYNPGSHGGYGGGSGGGSSYQGKQGGYSQSNYNSPGSGQNYSGPPSSYQSSQGGYGRNADHSMNYQYR
B4: Ig kappa chain V-I region BAN (protein)
chain: DIQMTQSPSSLSASVGDRVTITCRASQGISNYLAWFQQKPGKAPKSLIYAASSLQSGVPSKFSGSGSGTDFTLTISSLQPEDFATYYCQQYNSYP
B5: Isoform 2 of Spermatid perinuclear RNA-binding protein (protein)
chain: MVKHSTIYPSPEELEAVQNMVSTVECALKHVSDWLDETNKGTKTEGETEVKKDEAGENYSKDQGGRTLCGVMRIGLVAKGLLIKDDMDLELVLMCKDKPTETLLNTVKDNLPIQIQKLTEEKYQVEQCVNEASIIIRNTKEPTLTLKVILTSPLIRDELEKKDGENVSMKDPPDLLDRQKCLNALASLRHAKWFQARANGLKSCVIVLRILRDLCNRVPTWAPLKGWPLELICEKSIGTCNRPLGAGEALRRVMECLASGILLPGGPGLHDPCERDPTDALSYMTIQQKEDITHSAQHALRLSAFGQIYKVLEMDPLPSSKPFQKYSWSVTDKEGAGSSALKRPFEDGLGDDKDPNKKMKRNLRKILDSKAIDLMNALMRLNQIRPGLQYKLLSQSGPVHAPVFTMSVDVDGTTYEASGPSKKTAKLHVAVKVLQAMGYPTGFDADIECMSSDEKSDNESKNETVSSNSSNNTGNSTTETSSTLEVRTQGPILTASGKNPVMELNEKRRGLKYELISETGGSHDKRFVMEVEVDGQKFRGAGPNKKVAKASAALAALEKLFSGPNAANNKKKKIIPQAKGVVNTAVSAAVQAVRGRGRGTLTRGAFVGATAAPGYIAPGYGTPYGYSTAAPAYGLPKRMVLLPVMKFPTYPVPHYSFF
B6: Caspase-14 (protein)
chain: MSNPRSLEEEKYDMSGARLALILCVTKAREGSEEDLDALEHMFRQLRFESTMKRDPTAEQFQEELEKFQQAIDSREDPVSCAFVVLMAHGREGFLKGEDGEMVKLENLFEALNNKNCQALRAKPKVYIIQACRGEQRDPGETVGGDEIVMVIKDSPQTIPTYTDALHVYSTVEGYIAYRHDQKGSCFIQTLVDVFTKRKGHILELLTEVTRRMAEAELVQEGKARKTNPEIQSTLRKRLYLQ
B7: Histone H1.3 (protein)
chain: SETAPLAPTIPAPAEKTPVKKKAKKAGATAGKRKASGPPVSELITKAVAASKERSGVSLAALKKALAAAGYDVEKNNSRIKLGLKSLVSKGTLVQTKGTGASGSFKLNKKAASGEGKPKAKKAGAAKPRKPAGAAKKPKKVAGAATPKKSIKKTPKKVKKPATAAGTKKVAKSAKKVKTPQPKKAAKSPAKAKAPKPKAAKPKSGKPKVTKAKKAAPKKK
B8: Isoform 2 of Arginase-1 (protein)
chain: MSAKSRTIGIIGAPFSKGQPRGGVEEGPTVLRKAGLLEKLKEQVTQNFLILECDVKDYGDLPFADIPNDSPFQIVKNPRSVGKASEQLAGKVAEVKKNGRISLVLGGDHSLAIGSISGHARVHPDLGVIWVDAHTDINTPLTTTSGNLHGQPVSFLLKELKGKIPDVPGFSWVTPCISAKDIVYIGLRDVDPGEHYILKTLGIKYFSMTEVDRLGIGKVMEETLSYLLGRKKRPIHLSFDVDGLDPSFTPATGTPVVGGLTYREGLYITEEIYKTGLLSGLDIMEVNPSLGKTPEEVTRTVNTAVAITLACFGLAREGNHKPIDYLNPPK

target: T1, Abeta-42 plaque particles (Homo sapiens, UniProt P05067); test: Mass spectroscopy proteomics, semi-quantitative binding affinity of serum proteins (plaqueproteome, Table 2); conditions: higher number = stronger affinity
T1 construct: Abeta 1-42
Method in brief: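 AD patient serum or plasma (50% in PBS) was incubated with Abeta-42 aggregates (30 μg) for 1 h at 37 °C, then stained with Thioflavin S for 30 min. Labeled particles were FACS-sorted, trypsin/Lys-C digested overnight and analyzed by MS/MS. Sequest searched human UniProt; Scaffold/Protein Prophet validated the identifications.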

Molecule | Semi-quantitative analysis of proteins binding to different plaque particles: Abeta-42
B1 | 4
B2 | 0
B3 | 4
B4 | 2
B5 | 2
B6 | 5
B7 | 2
B8 | 2

target: T2, alpha-synuclein plaque particles (Homo sapiens, UniProt P37840); test: as above; conditions: higher number = stronger affinity
T2 construct: 140 amino acids polypeptide
Method in brief: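 AD-subject plasma or serum (800 μL of 50%) mixed with 30 μg preformed alpha-synuclein aggregates for 1 h at 37 °C; Thioflavin S-positive particles isolated by flow sorting. After reduction, acrylamide alkylation and overnight tryptic digestion, serum proteins identified by MS/MS with Sequest and Scaffold.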

Molecule | Semi-quantitative analysis of proteins binding to different plaque particles: Synuclein
B1 | 0
B2 | 0
B3 | 0
B4 | 1
B5 | 0
B6 | 0
B7 | 0
B8 | 0

test system: Tau plaque particles; test: as above; set-up: species or system human; conditions: higher number = stronger affinity
Method in brief: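 Synthetic Tau-74 and Tau-275 peptides (1 mg/mL PBS, 37° C, 2 h) aggregated; 30 μg aggregates incubated with 50% serum/plasma 1 h at 37° C, stained with Thioflavin S, and plaque particles sorted by flow cytometry. Bound proteins trypsin-digested and identified by MS/MS against human UniProt.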

Molecule | Semi-quantitative analysis of proteins binding to different plaque particles: Tau
B1 | 0
B2 | 0
B3 | 0
B4 | 2
B5 | 0
B6 | 0
B7 | 0
B8 | 0

test system: High Density cholesterol (Chl Large) plaque particles; test: as above; set-up: species or system human; conditions: higher number = stronger affinity
Method in brief: (§1)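 Read-out is MS/MS protein identification (Sequest, strict trypsin, 20 ppm parent tolerance; Scaffold probabilities) of serum proteins bound to flow-sorted cholesterol plaque particles. These particles formed when 50% atherosclerotic serum was incubated with 30 μg cholesterol aggregates for 1 hr at 37° C.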

Molecule | Semi-quantitative analysis of proteins binding to different plaque particles: Chl Large
B1 | 0
B2 | 0
B3 | 0
B4 | 2
B5 | 0
B6 | 0
B7 | 0
B8 | 0

test system: Low density cholesterol (Chl small) plaque particles; test: as above; set-up: species or system human; conditions: higher number = stronger affinity
Method in brief: as §1

Molecule | Semi-quantitative analysis of proteins binding to different plaque particles: Chl small
B1 | 0
B2 | 1
B3 | 0
B4 | 1
B5 | 0
B6 | 0
B7 | 0
B8 | 0
